# Measured values: patent US20090170219
# Tested on: IgG Fc fragment (IgG-Fc) (human), P01857-1
# Test: SPR
# Settings: 2'-F at all pyrimidines; solution A
row,Sequence,Kd [pM]
1,GGGACACAAUGGACGACUACAAGGUGCUCCUUGAAAUGUUAAAUGAGGAACUUGUAACGGCCGACAUGAGAG [SEQ ID NO:5],0.6
2,GGGACACAAUGGACGGCGUAAAAUGGAACCUGGGUUAGAAUAUCGGGGGUGCUCCGUAACGGCCGACAUGAGAG [SEQ ID NO:3],0.5
3,GGGACACAAUGGACGGCCAACGUUAACUGGAACUGUAAAUCAGGUGCUCGAGAUAACGGCCGACAUGAGAG [SEQ ID NO:4],6
4,GGGACACAAUGGACGAGUUACAGGUGCUCCAUCAACAAAAUGUUACAUGGAACUGUAACGGCCGACAUGAGAG [SEQ ID NO:1],1.1
5,GGGACACAAUGGACGUCAAAGAAGAGGUGCUCUGCGAGCCACGCGGAACUCUAUAACGGCCGACAUGAGAG [SEQ ID NO:2],7400
6,GGGACACAAUGGACGAAAGGUGCUCCAACUAAAUUUGGAACUUUCCACCCAUAAUAACGGCCGACAUGAGAG [SEQ ID NO:8],7000
7,GGGACACAAUGGACGGGUGUUACAGGUGCUUGAUAAAGGUAGAAAAUCAAACUGUAACGGCCGACAUGAGAG [SEQ ID NO:7],1
8,GGGACACAAUGGACGGCUGGUAAGGUGCUCGGAAUGGAACUCGUCAUUCGGAACUUAACGGCCGACAUGAGAG [SEQ ID NO:6],3000
